Measured values from CN116745314A (VIR BIOTECHNOLOGY CO LTD, dated 2023).

Biological target: spike glycoprotein of live SARS-CoV-2 (isolate USA-WA1/2020) (SARS-CoV-2, UniProt P0DTC2 14-1273)
Assay: cell-based or functional assay

B1: S2E12 (antibody, V domains shown)
VH: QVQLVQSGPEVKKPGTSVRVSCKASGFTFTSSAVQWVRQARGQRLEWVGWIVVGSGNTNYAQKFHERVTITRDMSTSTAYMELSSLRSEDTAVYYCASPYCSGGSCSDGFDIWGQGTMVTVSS
VL: DIVLTQTPGTLSLSPGERATLSCRASQSVSSSYLAWYQQKPGQAPRLLIYGASSRATGIPDRFSGSGSGTDFTLTISRLEPEDFAVYYCQQYVGLTGWTFGQGTKVEIK
- EC50 (live SARS-CoV-2 neutralisation): 5 ng/mL
- IC50 (live SARS-CoV-2 neutralisation): 5.41 ng/mL
